Key:
[1] = target: civet SARS CoV 007/2004 spike protein ectodomain (civet SARS CoV 007/2004 | bacteriophage T4); assay: cryo-EM structure
[2] = target: civet SARS CoV SZ3/2003 spike protein ectodomain (civet SARS CoV SZ3/2003 | bacteriophage T4); assay: cryo-EM structure

| Substance | stoichiometry N [1] | stoichiometry N [2] |
| --- | --- | --- |
| civet SARS CoV 007/2004 spike protein ectodomain (domain or fragment) | 3 |  |
| civet SARS CoV SZ3/2003 spike protein ectodomain (domain or fragment) |  | 3 |
